Values quoted from earlier work in article PMC3623542.
Where two headings read alike, the source gives them in different places.

Assays:
DnaK (Escherichia coli) [1] = target: DnaK (Escherichia coli) (UniProt P0A6Y8); test: NMR
DnaK (Escherichia coli) [2] = target: DnaK (Escherichia coli) (UniProt P0A6Y8)
DnaK (Escherichia coli) [3] = target: DnaK (Escherichia coli) (UniProt P0A6Y8); remark: listed apart in the source
DnaK (Escherichia coli) [4] = target: DnaK (Escherichia coli) (UniProt P0A6Y8); test: SPR
DnaK (Escherichia coli) [5] = target: DnaK (Escherichia coli) (UniProt P0A6Y8); test: SPR; remark: listed apart in the source
DnaK (Escherichia coli) [6] = target: DnaK (Escherichia coli) (UniProt P0A6Y8); test: SPR; remark: listed apart in the source

Chain of DnaJ (P08622 2-376): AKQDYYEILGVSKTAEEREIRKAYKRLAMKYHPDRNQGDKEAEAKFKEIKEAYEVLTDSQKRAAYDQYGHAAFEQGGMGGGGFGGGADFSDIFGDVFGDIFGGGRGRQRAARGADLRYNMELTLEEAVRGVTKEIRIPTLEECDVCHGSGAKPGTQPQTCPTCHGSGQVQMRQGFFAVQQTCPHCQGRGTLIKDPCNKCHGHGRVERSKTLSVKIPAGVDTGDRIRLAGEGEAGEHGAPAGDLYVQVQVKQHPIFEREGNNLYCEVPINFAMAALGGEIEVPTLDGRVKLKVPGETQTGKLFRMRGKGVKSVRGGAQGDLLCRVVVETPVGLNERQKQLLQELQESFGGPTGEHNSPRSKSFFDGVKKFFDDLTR
Chain of DnaK (Escherichia coli) (P0A6Y8 2-638): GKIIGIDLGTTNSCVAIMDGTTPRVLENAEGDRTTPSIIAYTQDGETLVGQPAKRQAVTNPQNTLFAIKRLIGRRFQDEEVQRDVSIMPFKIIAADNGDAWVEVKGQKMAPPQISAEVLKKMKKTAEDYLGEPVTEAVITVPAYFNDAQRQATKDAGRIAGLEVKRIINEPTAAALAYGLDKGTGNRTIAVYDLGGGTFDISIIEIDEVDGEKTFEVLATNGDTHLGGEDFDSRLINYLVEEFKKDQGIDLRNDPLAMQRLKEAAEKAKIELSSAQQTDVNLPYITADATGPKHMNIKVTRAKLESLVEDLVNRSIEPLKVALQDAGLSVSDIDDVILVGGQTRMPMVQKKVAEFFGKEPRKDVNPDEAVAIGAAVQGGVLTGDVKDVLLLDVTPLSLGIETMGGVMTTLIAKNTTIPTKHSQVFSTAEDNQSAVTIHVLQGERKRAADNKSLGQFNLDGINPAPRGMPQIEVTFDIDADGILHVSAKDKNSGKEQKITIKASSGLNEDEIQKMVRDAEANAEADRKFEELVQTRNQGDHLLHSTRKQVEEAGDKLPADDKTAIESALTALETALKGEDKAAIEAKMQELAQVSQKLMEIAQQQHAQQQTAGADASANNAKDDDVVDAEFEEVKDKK
Chain of DnaJ 1-75 (P08622 1-75): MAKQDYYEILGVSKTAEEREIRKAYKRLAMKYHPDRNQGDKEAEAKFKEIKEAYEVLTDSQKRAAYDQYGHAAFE

## DnaJ 1-75 (from UniProt P08622)
DnaK (Escherichia coli) [1]
  Kd: 10000 nM

## DnaJ (from UniProt P08622)
DnaK (Escherichia coli) [2]
  Kd: 140 nM
DnaK (Escherichia coli) [3]
  Kd: > 2000 nM
DnaK (Escherichia coli) [4]
  Kd: 300 nM
DnaK (Escherichia coli) [5]
  Kd: > 1000 nM
DnaK (Escherichia coli) [6]
  Kd: 70 nM
